The values below come from patent US20190338048A1 (published 2019).

For test [1], the target named is T1, His-tagged recombinant human CD-19 (human, UniProt P15391 20-291, limits assumed).
T1 sequence (looked up): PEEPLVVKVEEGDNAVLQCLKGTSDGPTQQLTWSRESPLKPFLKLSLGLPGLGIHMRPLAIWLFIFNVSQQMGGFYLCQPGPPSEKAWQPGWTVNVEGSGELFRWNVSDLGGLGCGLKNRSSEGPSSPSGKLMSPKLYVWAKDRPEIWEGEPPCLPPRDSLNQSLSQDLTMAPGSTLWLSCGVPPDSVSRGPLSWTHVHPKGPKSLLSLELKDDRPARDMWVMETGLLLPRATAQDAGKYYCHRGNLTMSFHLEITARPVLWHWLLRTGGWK
As to the kind of experiment: SPR. On the technique in general: SPR reads the build-up and loss of mass on a sensor chip optically.

The target of test [2] is Pertuzumab heavy chain Fab construct (H2) Q39D (VH Q39D). Nature of the test: LCCA, SPR tag read-out.
Test [3] concerns the target CAT-2200 heavy chain Fab construct (H1) Q39K (VH Q39K). Nature of the test: LCCA, SPR tag read-out.
In test [4] the target is Pertuzumab heavy chain Fab construct (H2) Q39E (VH Q39E). Nature of the test: LCCA, SPR tag read-out.
For test [5], the target named is Pertuzumab heavy chain Fab construct (H2) Q39D (VH Q39D). As to the kind of experiment: LCCA, SPR tag read-out. The source holds these as a separate data set.
Test [6] deals with CAT-2200 heavy chain Fab construct (H1) Q39K (VH Q39K). As to the kind of experiment: LCCA, SPR tag read-out. This is another data set of the same source.
Test [7] concerns the target Pertuzumab heavy chain Fab construct (H2) Q39E (VH Q39E). As to the kind of experiment: LCCA, SPR tag read-out. This is another data set of the same source.
Test [8] has as its target CAT-2200 heavy chain Fab construct (H1), wild type. Nature of the test: LCCA, SPR tag read-out.
For test [9], the target named is Pertuzumab heavy chain Fab construct (H2) Q39D (VH Q39D). Nature of the test: LCCA, SPR tag read-out. The source holds these as a separate data set.
Test [10] has as its target Pertuzumab heavy chain Fab construct (H2) Q39E (VH Q39E). As to the kind of experiment: LCCA, SPR tag read-out. This is another data set of the same source.
Test [11] addresses Recombinant human IL-17A (human, UniProt Q16552 20-155, limits assumed). Nature of the test: SPR.
Target sequence in this assay (Q16552 20-155 limits assumed): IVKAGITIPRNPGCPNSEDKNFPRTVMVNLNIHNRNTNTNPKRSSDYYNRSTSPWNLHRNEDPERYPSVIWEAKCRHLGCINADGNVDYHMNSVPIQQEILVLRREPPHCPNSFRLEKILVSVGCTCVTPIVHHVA
Test [12] concerns the target CAT-2200 heavy chain Fab construct (H1) Q39R (VH Q39R). As to the kind of experiment: LCCA, SPR tag read-out.
For test [13] the target is unchanged. Nature of the test: LCCA, SPR tag read-out. The source holds these as a separate data set.
In test [14] the target is Recombinant human IL-17A (human, UniProt Q16552 20-155, limits assumed). As to the kind of experiment: SPR. The source holds these as a separate data set.
Target sequence in this assay (Q16552 20-155 limits assumed): as above
Test [15] has the same target. Nature of the test: SPR. This is another data set of the same source.
Target sequence in this assay (Q16552 20-155 limits assumed): as above
For test [16], the target named is T2, Recombinant HER2 protein (HER2-ECD) (UniProt P04626 23-652, limits assumed). Nature of the test: SPR, Fab captured, HER2 as analyte.
The target of test [17] is T2, Recombinant HER2 protein (HER2-ECD). Nature of the test: SPR.
Test [18] addresses T3, His-tagged recombinant human CD-19 (human, UniProt P15391 20-291, limits assumed).
T3 sequence (looked up): T1 sequence (looked up)
As to the kind of experiment: SPR. The source holds these as a separate data set.

In test [19] the target is His-tagged Influenza B Hemagglutinin (B/Brisbane/60/2008) (Influenza B virus (B/Brisbane/60/2008)). As to the kind of experiment: SPR.
For test [20], the target named is T3, His-tagged recombinant human CD-19. Nature of the test: SPR. This is another data set of the same source.

Where a chain is given by its changes, count along the chain named. Numbers in names are those of the source. Read-outs that look alike come from different tables or passages of the source.

B1: Design 4040 SGN-CD19a H2L2 arm in OAA (one-armed antibody) format (antibody, V domains shown)
VH: QVTLRESGPALVKPTQTLTLTCTFSGFSLSTSGMGVGWIRQPPGKAPEWLAHIWWDDDKRYNPALKSRLTISKDTSKNQVVLTMTNMDPVDTAAYYCARMELWSYYFDYWGQGTLVTVSS
VL: EIVLTQSPATLSLSPGERATLSCSASSSVSYMHWYQQKPGQAFRLLIYDTSKLASGIPARFSGSGSGTDFTLTISSLEPEDFAVYYCFQGSVYPFTFGQGTKLEIKR
With B1, the Kd in test [1] was 22.4 nM.

B2: Pertuzumab kappa light chain construct (L2) Q38K, HA-tagged (other, not shown: small tags and cut ends)
light: DIQMTQSPSSLSASVGDRVTITCKASQDVSIGVAWYQKKPGKAPKLLIYSASYRYTGVPSRFSGSGSGTDFTLTISSLQPEDFATYYCQQYYIYPYTFGQGTKVEIKRTVAAPSVFIFPPSDEQLKSGTASVVCLLNNFYPREAKVQWKVDNALQSGNSQESVTEQDSKDSTYSLSSTLTLSKADYEKHKVYACEVTHQGLSSPVTKSFNRGEC
In the case of B2, the “H2L2:H2L1 normalized median ratio (H2L2 part)” value in test [2] was 79%; in test [4], 78%; in [5] it was 75%; in [7], 75%; in test [9], 47%; in test [10] it was 47%. The “H2L2:H2L1 normalized median scalar value ln(r1/f1)” value in test [2] is 1.35; in [4] it was 1.29; in test [5] it was 1.09; in [7], 1.09; in [9], -0.11; in test [10], -0.11. Besides, the “H1L1:H1L2 normalized median ratio (H1L2 part)” value in [3] was determined as 35%; in [6], 29%; in test [8], 33%.

B3: Design 4320 bispecific antibody, System A (CAT-2200 H1/L1 & Pertuzumab H2/L2) (bispecific antibody)
chain 1: not shown
chain 2: NFMLTQPHSVSESPGKTVTISCTRSSGSLANYYVQWYQQRPGSSPTIVIFANNQRPSGVPDRFSGSIDSSSNSASLTISGLKTEDEADYYCQTYDPYSVVFGGGTKLTVLGQPKAAPSVFLFPPSSEELQANTATLDCLISDFYPGAVTVAWKADSSPVKAGVETTTPSKQSNNKYAAFSYLSLTPEQWKSHRSYSCQVTHEGSTVEKTVAPTECS
chain 3: not shown
chain 4: B2 light with K38Q, Q124K, L135A, T178R
With B3, the Kd with Recombinant human IL-17A [11] was found to be 0.36 nM.

B4: Pertuzumab kappa light chain construct (L2) Q38R, HA-tagged (other, not shown: small tags and cut ends)
light: B2 light with K38R
As for B4, the “H1L1:H1L2 normalized median ratio (H1L2 part)” value in [12] worked out at 28%; in test [13], 23%; in test [8], 26%. Further, the “H2L2:H2L1 normalized median ratio (H2L2 part)” value in test [2] was found to be 92%; in test [4] it was 77%; in [5], 77%; in test [7] it was 73%; in test [9], 49%; in test [10], 48%. In addition, the “H2L2:H2L1 normalized median scalar value ln(r1/f1)” value in test [2] is 2.47; in test [4] it was 1.19; in test [5] it was 1.19; in [7], 1.02; in test [9], -0.03; in [10], -0.08.

B5: CAT-2200 Fab heterodimer H1L1, no pairing substitutions (wild-type H1 and L1), light chain with FLAG tag (Fab, V domains shown, not shown: small tags and cut ends)
VH: not shown
VL: NFMLTQPHSVSESPGKTVTISCTRSSGSLANYYVQWYQQRPGSSPTIVIFANNQRPSGVPDRFSGSIDSSSNSASLTISGLKTEDEADYYCQTYDPYSVVFGGGTKLTVLG
In the case of B5, the “Change in KD of H1L1 Fab vs wild type” value in the test with Recombinant human IL-17A [14] turned out to be 0.

B6: CAT-2200 Fab heterodimer H1L1 of designs 10662-10731 and 10662-10733 (H1 L45F, L1 unmodified) (Fab, name in Kabat numbering, V domains shown, not shown: small tags and cut ends)
VH: EVQLLESGGGLVQPGGSLRLSCAASGFTFSSYAMSWVRQAPGKGFEWVSAISGSGGSTYYADSVKGRFTISRDNSKNTLYLQMNSLRAEDTAVYYCARDLIHGVTRNWGQGTLVTVSS
VL: B5 VL
Take B6: in the test with Recombinant human IL-17A [15], the Kd worked out at 0.29 nM.

B7: Pertuzumab Fab heterodimer H2L2 of design 10674-10749 (H2 Q39K, L2 Q38E) (Fab, name in Kabat numbering, V domains shown, not shown: small tags and cut ends)
VH: EVQLVESGGGLVQPGGSLRLSCAASGFTFTDYTMDWVRKAPGKGLEWVADVNPNSGGSIYNQRFKGRFTLSVDRSKNTLYLQMNSLRAEDTAVYYCARNLGPSFYFDYWGQGTLVTVSS
VL: DIQMTQSPSSLSASVGDRVTITCKASQDVSIGVAWYQEKPGKAPKLLIYSASYRYTGVPSRFSGSGSGTDFTLTISSLQPEDFATYYCQQYYIYPYTFGQGTKVEIKR
Consider B7, for which, in test [16], the “Change in KD of H2L2 Fab vs wild type, -(log(KD_design)-log(KD_wt))” value is 0.12 log(KD) difference. Further, the Kd in test [17] was 6.09 nM.

B8: Design 2979 bispecific antibody, System C (CR8071 H1/L1 & SGN-CD19a H2/L2) (bispecific antibody)
chain 1: QVQLVQSGAEVKKPGASVRVSCRASGYIFTESGITWVRQAPGQGLEWMGWISGYSGDTKYAQKLQGRVTMTKDTSTTTAYMELRSLRYDDTAVYYCARDVQYSGSYLGAYYFDYWSPGTLVTVSSASTKGPSVFPLAPSSKSTSGGTAALGCLVKDYFPEPVTVSWNSGALTSGVHTFPAVLQSSGLYSLKSVVTVPSSSLGTQTYICNVNHKPSNTKVDKKVEPKSCDKTHTCPPCPAPELLGGPSVFLFPPKPKDTLMISRTPEVTCVVVDVSHEDPEVKFNWYVDGVEVHNAKTKPREEQYNSTYRVVSVLTVLHQDWLNGKEYKCKVSNKALPAPIEKTISKAKGQPREPQVYVYPPSRDELTKNQVSLTCLVKGFYPSDIAVEWESNGQPENNYKTTPPVLDSDGSFALVSKLTVDKSRWQQGNVFSCSVMHEALHNHYTQKSLSLSPG
chain 2: not shown
chain 3: not shown
chain 4: EIVLTQSPATLSLSPGERATLSCSASSSVSYMHWYQQKPGQAPRLLIYDTSKLASGIPARFSGSGSGTDFTLTISSLEPEDFAVYYCFQGSVYPFTFGQGTKLEIKRTVAAPSVFIFPPSDEQLKSGTARVGCLLNNFYPREAKVQWKVDNALQSGNSQESVTEQDSKDSTYSLRSTLTLSKADYEKHKVYACEVTHQGLSSPVTKSFNRGEC
Take B8: the Kd in [18] came to 45.1 nM; in test [19], 0.93 nM. Besides, the “Difference in H2L2 log(KD) from wild type” value in test [20] is 0.7.

One may read the Kd as a measure of binding affinity in units of concentration.
